Laboratory results taken from patent US8962819B2, “Anti-C5 alpha antibodies” (Adienne S.A., priority 2002, dated 2015).

How the values were obtained:
[1] = target: T1, C5 (Homo sapiens, UniProt P01031); assay: Hemolytic assay, classical pathway (EAC1-3b sheep erythrocytes); type: biochemical; conditions: 600 ng scFv, increasing amounts of C5, FIG. 4A
T1 construct: C5 alpha and beta subunits were obtained by incubating 50 μg of C5; purchased Quidel
Protocol: Values from spectrophotometric reading performed at 412 nm to measure inhibition of lysis of sheep erythrocytes coated with EAC1-3b, through the classical complement activation pathway (A Panel); or of rabbit erythrocytes in order to measure the alternative pathway of complement activation (B Panel). Increasing amounts of C5 were mixed with 600 ng of the scFv antibody of the invention with an unrelated scFv, or with GVBS in which the scFv of the invention were solubilised, as described in example 9. After incubation with serum lacking in C5, obtained from a patient with selective deficiency of this complement component, the percentage of hemolysis was measured compared to the 100% value obtained by lysing erythrocytes in an equal volume of distilled H2O and a blank obtained by resuspending eythrocytes in GBVS. Having assessed the characteristics of the inhibition of the classical activation pathway of factor C5 by the TS-A12/22 antibody, it was then verified whether there was inhibition also of the alternative pathway of C5 activation, and at which level. […] After incubation for 30 minutes at 37° C., the percentage of erythrocyte lysis was measured by comparison to a 100% value obtained by lysing erythrocytes with an equal volume of distilled of H2O and to a blank consisting of erythrocytes re-suspended in GBVS. […]

[2] = target: T1, C5; assay: Haemolytic assay / TCC ELISA with EAC1-3b sheep erythrocytes and C5 depleted serum; type: biochemical; conditions: FIG. 1B
Protocol: Panel A) The ELISA assay measures the amount of C5a fragment released in the supernatant after enzymatic cleavage of C5, using antibodies anti-C5 as described in example 6. […] Sheep erythrocytes sensitised with antibodies and coated until the C3b (EAC1-3b) complement step were added to the mixture of TS-A12 or TS-A12/22 and C5, and the mixture was further incubated for 30 minutes at 37° C. (panel B).
Sheep erythrocytes (SBRC: Sheep red blood cells) were sensitised with sub-agglutinating amounts of rabbit IgM (EA). […]
The obtained anti-C5 scFv fragments were further characterised for their ability to inhibit the hemolytic activity of C5 or, in other words, to block conversion of the C5 component to C5a. […] At the end of this procedure, cell lysis was measured as percentage of the control of total lysis in distilled H2O (see FIG. 1, panel B). The inhibition of C5a and TCC production by the scFv TS-A12 and TS-A12/22 was measured by means of ELISA using the monoclonal antibody 17/5 as the capture antibody and antibody G25/2 as detection antibody according to what has been described in Opperman et al., 1991, Complement Inflamm. […] The presence of TCC was measured using antibody aE11 as the capture antibody and a biotinylated anti-C5 antibody (SIGMA-ALDRICH®) followed by alkaline phosphatase-conjugated streptavidin, as described by Tedesco et al. (1997, J Exp. Med. 185:1619).

[3] = test system: C4; assay: Specificity on other complement components; type: binding
Protocol: (§1) (The specificity of TS-A12/22 antibody was evaluated also on other components of the complement cascade, as for instance C3 and C4, which are structurally similar to C5, but cross-reactivity was not found).

[4] = target: C3 (Homo sapiens, UniProt P01024); assay: Specificity on other complement components; type: binding
Protocol: as §1

T1 sequence (P01031 678-1676 limits assumed): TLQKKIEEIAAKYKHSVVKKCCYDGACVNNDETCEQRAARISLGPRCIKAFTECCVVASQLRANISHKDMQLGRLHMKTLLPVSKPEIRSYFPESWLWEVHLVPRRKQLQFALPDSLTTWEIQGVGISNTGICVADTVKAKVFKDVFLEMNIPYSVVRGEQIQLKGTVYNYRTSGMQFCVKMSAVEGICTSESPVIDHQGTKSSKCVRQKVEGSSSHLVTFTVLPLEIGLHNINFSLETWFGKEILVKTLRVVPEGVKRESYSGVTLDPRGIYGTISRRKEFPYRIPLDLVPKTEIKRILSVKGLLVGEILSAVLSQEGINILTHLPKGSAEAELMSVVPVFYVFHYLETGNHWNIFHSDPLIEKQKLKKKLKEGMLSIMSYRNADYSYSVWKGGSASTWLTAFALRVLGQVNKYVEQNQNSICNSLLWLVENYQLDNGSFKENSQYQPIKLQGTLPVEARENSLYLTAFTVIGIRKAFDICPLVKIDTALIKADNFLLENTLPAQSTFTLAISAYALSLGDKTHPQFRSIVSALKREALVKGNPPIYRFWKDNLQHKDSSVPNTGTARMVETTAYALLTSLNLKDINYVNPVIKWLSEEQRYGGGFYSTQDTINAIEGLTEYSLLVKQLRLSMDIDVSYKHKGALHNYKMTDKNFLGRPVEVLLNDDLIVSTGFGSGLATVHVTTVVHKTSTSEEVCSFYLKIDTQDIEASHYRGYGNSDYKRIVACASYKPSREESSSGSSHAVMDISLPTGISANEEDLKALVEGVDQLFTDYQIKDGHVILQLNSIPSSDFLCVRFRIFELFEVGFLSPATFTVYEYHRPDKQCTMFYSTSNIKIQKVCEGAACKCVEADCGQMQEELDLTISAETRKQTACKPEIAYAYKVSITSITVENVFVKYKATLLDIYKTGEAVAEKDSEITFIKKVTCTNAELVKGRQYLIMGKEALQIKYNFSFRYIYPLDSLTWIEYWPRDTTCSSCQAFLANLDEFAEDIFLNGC
T1 sequence (P01031 19-673 partner limits assumed): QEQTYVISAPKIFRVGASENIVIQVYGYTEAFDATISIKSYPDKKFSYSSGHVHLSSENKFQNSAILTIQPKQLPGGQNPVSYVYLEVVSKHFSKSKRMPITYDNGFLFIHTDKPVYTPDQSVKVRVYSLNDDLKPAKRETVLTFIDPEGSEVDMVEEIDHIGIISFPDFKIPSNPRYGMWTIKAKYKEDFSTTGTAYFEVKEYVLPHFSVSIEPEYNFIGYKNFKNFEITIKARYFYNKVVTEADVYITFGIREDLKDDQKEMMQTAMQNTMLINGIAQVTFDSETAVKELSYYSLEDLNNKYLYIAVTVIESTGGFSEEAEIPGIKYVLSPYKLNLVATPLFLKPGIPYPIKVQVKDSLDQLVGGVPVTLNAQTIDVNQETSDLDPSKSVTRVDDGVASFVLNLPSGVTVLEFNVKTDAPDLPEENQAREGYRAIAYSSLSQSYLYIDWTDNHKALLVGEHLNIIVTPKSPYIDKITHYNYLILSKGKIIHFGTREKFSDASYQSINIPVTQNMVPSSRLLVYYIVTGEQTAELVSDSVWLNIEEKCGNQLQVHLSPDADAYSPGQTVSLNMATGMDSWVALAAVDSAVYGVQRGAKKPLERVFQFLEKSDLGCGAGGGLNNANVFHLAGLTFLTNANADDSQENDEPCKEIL
C3, sequence (P01024 23-1663): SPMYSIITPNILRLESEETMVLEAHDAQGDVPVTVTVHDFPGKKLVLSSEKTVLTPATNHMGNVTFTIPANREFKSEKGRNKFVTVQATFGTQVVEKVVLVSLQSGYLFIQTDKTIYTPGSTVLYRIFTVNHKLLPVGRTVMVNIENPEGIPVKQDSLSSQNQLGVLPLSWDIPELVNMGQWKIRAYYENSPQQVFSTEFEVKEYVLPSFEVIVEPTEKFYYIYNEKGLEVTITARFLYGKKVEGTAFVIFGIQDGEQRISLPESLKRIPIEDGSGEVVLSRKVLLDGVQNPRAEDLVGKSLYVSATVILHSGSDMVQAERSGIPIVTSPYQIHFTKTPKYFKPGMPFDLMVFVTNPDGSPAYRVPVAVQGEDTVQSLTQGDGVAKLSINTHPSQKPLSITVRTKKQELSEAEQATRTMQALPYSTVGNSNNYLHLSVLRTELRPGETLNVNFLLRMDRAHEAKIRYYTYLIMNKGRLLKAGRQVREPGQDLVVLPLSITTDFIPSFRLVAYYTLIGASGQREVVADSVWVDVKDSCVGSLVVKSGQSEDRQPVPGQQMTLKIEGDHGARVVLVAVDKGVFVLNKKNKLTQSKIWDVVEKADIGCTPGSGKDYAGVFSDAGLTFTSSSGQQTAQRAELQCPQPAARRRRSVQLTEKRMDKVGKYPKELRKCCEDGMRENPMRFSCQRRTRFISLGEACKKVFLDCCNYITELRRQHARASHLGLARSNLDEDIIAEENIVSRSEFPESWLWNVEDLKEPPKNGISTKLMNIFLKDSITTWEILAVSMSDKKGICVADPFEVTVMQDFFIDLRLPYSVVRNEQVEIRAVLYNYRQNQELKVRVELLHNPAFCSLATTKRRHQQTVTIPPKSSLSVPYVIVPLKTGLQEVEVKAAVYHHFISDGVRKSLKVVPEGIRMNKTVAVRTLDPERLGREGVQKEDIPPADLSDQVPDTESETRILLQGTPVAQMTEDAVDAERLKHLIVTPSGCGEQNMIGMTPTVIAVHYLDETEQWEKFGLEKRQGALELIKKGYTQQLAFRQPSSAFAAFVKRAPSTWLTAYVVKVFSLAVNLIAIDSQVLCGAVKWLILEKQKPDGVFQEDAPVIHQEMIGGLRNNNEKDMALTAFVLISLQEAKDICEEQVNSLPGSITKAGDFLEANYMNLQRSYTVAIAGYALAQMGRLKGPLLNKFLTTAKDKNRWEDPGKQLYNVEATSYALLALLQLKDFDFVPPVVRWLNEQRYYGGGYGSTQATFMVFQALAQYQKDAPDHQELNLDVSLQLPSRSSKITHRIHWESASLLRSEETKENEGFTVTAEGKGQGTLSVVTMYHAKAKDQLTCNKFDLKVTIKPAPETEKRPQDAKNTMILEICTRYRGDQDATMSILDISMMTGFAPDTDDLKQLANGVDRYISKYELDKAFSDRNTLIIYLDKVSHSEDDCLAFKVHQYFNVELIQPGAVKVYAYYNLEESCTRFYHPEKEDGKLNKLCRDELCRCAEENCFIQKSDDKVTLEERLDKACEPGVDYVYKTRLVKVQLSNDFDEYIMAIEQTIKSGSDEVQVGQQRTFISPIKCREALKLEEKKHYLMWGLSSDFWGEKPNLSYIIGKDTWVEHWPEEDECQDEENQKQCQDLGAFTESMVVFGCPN

B1: TS-A12/22: anti-C5 scFv obtained from TS-A12 by VL chain shuffling; VH3/V-48 and Vλ3/V2-14; amino acid sequence SEQ ID NO:6 (protein, listed as Homo sapiens)
scFv: DIRMTQSPDSLAVSLGERATINCKSSQSVLYSSNNKNYLAWYQQKPGQPPKLLIYWASTRESGVPDRFSGSGSGTDFTLTISSLQAEDVAVYYCQQYYSTPQLTFGGRTKVDIKSGGSTITSYNVYYTKLSSSGTQVQLQQSEGGVVQPGRSLRLSCAASGFTFSSYGMNWVRQAPGKGLEWVSYISSSSSTIYYADSVKGRFTISRDNSKNTLYLQMNSLRAEDTAVYYCARGPGMDVWGQGTTVTVSS
- inhibition of erythrocyte lysis through the classical pathway [1]: inhibits
- inhibition of formation of TCC [2]: inhibit almost completely
- cross-reactivity with C4 [3]: not found
- cross-reactivity with C3 [4]: not found
